From patent US20190233508A1 (Eli Lilly, published 2019)

B1: anti-human IL-21 antibody AbM2 (antibody, V domains shown)
VH: QVQLVQSGAEVKKPGASVKVSCKASGYTFTDYWMHWVRQAPGQGLEWMGLIDTSDSYTIYNQKFKGRVTMTRDTSTSTVYMELSSLRSEDTAVYYCARYGPLAMDYWGQGTLVTVSS
VL: DIQMTQSPSSLSASVGDRVTITCRASQDISNYLNWYQQKPGKAPKLLIYYTSRLHSGVPSRFSGSGSGTDFTLTISSLQPEDFATYYCQQFHTLRTFGGGTKVEIKR
notes: In the Simoa assays it is biotinylated (40:1 biotin to antibody)
B2: anti-human IL-21 antibody Ab3-1 (antibody, mouse IgG1, kappa, V domains shown)
VH: QVQLKQSAAELARPGASVKMSCKASGYFFTLYMMHWAKQRPGQNLEWIGYINPSSGYTEYNQKFKDKTTLTADKSSSTAYMQLSSLTSEDSAIYYCLTDFDYWGQGTSLTVSS
VL: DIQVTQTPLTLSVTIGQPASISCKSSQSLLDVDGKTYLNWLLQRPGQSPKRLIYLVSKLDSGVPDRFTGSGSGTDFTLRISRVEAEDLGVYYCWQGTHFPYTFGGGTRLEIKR
notes: also called Ab34; Ab3-21

Target: T1, Recombinant human IL-21 protein (25-155) (human, UniProt Q9HBE4 32-162)
T1 construct: also called recombinant IL-21; IL-21 recombinant protein
T1 sequence (Q9HBE4 other isoform, or with tags, fused parts or gaps limits assumed): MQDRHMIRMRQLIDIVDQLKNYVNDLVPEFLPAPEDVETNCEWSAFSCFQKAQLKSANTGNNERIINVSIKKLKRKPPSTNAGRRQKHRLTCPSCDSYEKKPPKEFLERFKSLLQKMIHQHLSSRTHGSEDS
Test: Quanterix Simoa sandwich pairing against recombinant IL-21 reference curve (100 ng/mL-1.0 fg/mL)
Procedure: The antibodies of the present invention, AbM2, Ab2-1, and Ab3-1, are conjugated to beads (Quanterix Cat #101360) at 0.5 mg/mL and are biotinylated according to the manufacturer's protocol at a ratio of 40 to 1 biotin to antibody. Nine combinations of the three antibody pairs are generated and analyzed against a recombinant IL-21 reference curve (100 ng/mL-1.0 fg/mL). The beads are diluted in bead diluent (Quanterix, Cat #100458) and the detection antibodies are diluted in sample/detection buffer (Quanterix, Cat #101359). Two pairs of antibodies are moved into further optimization due to the ability to discriminate IL-21 concentrations in the fg/mL range. The first pair is Ab2-1 and AbM2 which perform well in either orientation. The second pair is Ab3-21 as capture and Ab2-1 as detection.

Row | Binder | binding result
1 | B1 | binds
2 | B2 | binds
